The values below come from patent US20200289663A1.

The target in assay [1] is human recombinant protein HER2-ECD with his-tag (human) (UniProt P04626). The experiment in a line: ELISA on coated HER2-ECD. In general terms: An ELISA detects its analyte on a solid surface through an enzyme-linked reagent.
For assay [2] the target is unchanged. Description: ELISA on coated HER2-ECD, average of three independent assays.

RC48-VC-MMAF, sequence (VH): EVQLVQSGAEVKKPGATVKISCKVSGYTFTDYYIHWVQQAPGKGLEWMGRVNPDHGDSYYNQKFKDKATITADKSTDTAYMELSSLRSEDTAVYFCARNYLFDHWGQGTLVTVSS
RC48-VC-MMAF, sequence (VL): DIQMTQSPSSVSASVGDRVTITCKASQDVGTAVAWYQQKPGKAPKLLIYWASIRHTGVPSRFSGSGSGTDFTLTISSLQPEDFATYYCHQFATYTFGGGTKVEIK
RC48-mc-vc-pAB-MMAE, sequence (VH): as the sequence (VH) above
RC48-mc-vc-pAB-MMAE, sequence (VL): as the sequence (VL) above
humanized anti-HER2 monoclonal antibody RC48, sequence (VH): as the sequence (VH) above
humanized anti-HER2 monoclonal antibody RC48, sequence (VL): as the sequence (VL) above

For the substance RC48-VC-MMAF, in assay [1], the Binding affinity was found to be 3.35 ng/mL and the Mole equivalent worked out at 13.5.
Regarding RC48-mc-vc-pAB-MMAE, in assay [1], the Binding affinity is 2.24 ng/mL and the Mole equivalent is 15.2.
Consider “human-mouse chimeric anti-HER2 antibody cRC48”, for which, in assay [2], the Kd stood at 0.077 nM.
For “humanized anti-HER2 monoclonal antibody RC48”, the Kd in assay [2] worked out at 0.044 nM.

By Kd is commonly meant the constant that tells how readily two partners part at equilibrium.
